# Measured values as given in patent publication US20260125451A1 (JIANGSU HENGRUI PHARMACEUTICALS, published 2026).
# Read-outs that look alike come from different tables or passages of the source.
# T1: APRIL (Acro Biosystems, Cat: APL-H52D1) (UniProt O75888 115-250, limits assumed)
# T1 construct: also called ARPIL; A proliferation-inducing ligand
# T1 sequence (looked up): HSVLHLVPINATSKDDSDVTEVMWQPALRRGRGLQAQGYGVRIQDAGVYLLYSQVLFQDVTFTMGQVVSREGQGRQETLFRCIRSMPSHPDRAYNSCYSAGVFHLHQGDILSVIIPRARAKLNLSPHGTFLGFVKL
# T2: type I interferon (IFN) receptor subunit 1 (IFNAR1) (human, UniProt P17181 28-557)
# T2 sequence (looked up): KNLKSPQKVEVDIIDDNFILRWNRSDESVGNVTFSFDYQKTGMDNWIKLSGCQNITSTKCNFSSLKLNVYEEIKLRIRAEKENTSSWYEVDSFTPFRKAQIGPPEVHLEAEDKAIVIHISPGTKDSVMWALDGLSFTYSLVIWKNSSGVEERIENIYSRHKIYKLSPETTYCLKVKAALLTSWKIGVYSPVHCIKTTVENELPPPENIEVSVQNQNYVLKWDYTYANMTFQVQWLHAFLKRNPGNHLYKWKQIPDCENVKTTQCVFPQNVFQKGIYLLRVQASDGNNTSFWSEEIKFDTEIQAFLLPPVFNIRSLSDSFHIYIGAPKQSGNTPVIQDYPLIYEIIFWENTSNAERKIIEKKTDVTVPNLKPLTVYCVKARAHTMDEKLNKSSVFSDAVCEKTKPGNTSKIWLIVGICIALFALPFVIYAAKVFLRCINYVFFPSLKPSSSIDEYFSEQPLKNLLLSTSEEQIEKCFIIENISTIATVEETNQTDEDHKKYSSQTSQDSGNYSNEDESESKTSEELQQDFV
# T3: recombinant human ARPIL (R&D cat: 5860-AP-010/CF) (human, UniProt O75888 105-250, limits assumed)
# T3 sequence (looked up): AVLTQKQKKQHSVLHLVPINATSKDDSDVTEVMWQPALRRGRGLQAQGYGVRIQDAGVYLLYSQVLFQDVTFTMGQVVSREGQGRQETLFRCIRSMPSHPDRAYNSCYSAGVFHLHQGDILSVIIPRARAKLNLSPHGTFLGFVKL
# What was measured:
# [1] = target: T4, BAFF (PeproTech, Cat: 310-13) (UniProt Q9Y275 134-285); experiment: ELISA, BAFF coated, anti-human Fc-HRP, OD450
# Method: (§1) The capabilities of TACI-BCMA fusion proteins (B575701, B575702, B575703, and B575704) to bind to BAFF and APRIL were assessed by ELISA as follows:
# (§2) BAFF (PeproTech, Cat: 310-13) or ARPIL (Acro Biosystems, Cat: APL-H52D1) was diluted to 1 μg/mL with PBS, and a 96-well plate (Costar, Cat: 3590) was coated with the dilution overnight at 4° C. The plate was washed with PBST and blocked with Blocking Buffer (PBST containing 1% BSA) at 37° C. for 1 h. The plate was tapped. The test antibodies were diluted with Blocking Buffer. Incubation was performed at 37° C. for 1.5 h. The plate was washed with PBST. An HRP-mouse anti-human Fc antibody (GenScript, Cat: A01854-200) was diluted with Blocking Buffer. Incubation was performed at 37° C. for 40 min. The plate was washed with PBST. 100 μL of TMB substrate solution (Biopanda, Cat: TMB-S-003) was added, and color development was performed at 37° C. for 3 min. 100 μL of ELISA stop solution (Solarbio, Cat: C1058) was added. OD450 was measured.
# [2] = target: T4, BAFF (PeproTech, Cat: 310-13); experiment: ELISA, BAFF coated, anti-human Fc-HRP
# [3] = target: T1, APRIL (Acro Biosystems, Cat: APL-H52D1); experiment: ELISA, APRIL coated, anti-human Fc-HRP, OD450
# Method: as §1, §2
# [4] = target: T2, type I interferon (IFN) receptor …; experiment: cell-based or functional assay
# [5] = target: T2, type I interferon (IFN) receptor …; experiment: cell-based or functional assay; remark: listed apart in the source
# [6] = target: T1, APRIL (Acro Biosystems, Cat: APL-H52D1); experiment: ELISA, APRIL coated, anti-human Fc-HRP, OD450; remark: listed apart in the source
# Method: The capabilities of fusion proteins B606401, B637302, B746201, and B805201 to bind to BAFF and APRIL were assessed by ELISA as follows:
# as §2, with “plate” for “plate (Costar, Cat: 3590)”
# The EC₅₀ value for the capability of B637302 to bind to APRIL decreased to 1/7 to ⅙ of that of telitacicept.
# [7] = target: T1, APRIL (Acro Biosystems, Cat: APL-H52D1); experiment: ELISA, APRIL coated, anti-human Fc-HRP
# [8] = target: T3, recombinant human ARPIL (R&D cat: …); experiment: cell-based or functional assay
# [9] = target: recombinant human BAFF (R&D cat: 7537-BF-025/CF) (human, UniProt Q9Y275 134-285, limits assumed); experiment: cell-based or functional assay
# [10] = target: T1, APRIL (Acro Biosystems, Cat: APL-H52D1); experiment: ELISA, APRIL coated, anti-human Fc-HRP, OD450; remark: listed apart in the source
# Method: The capabilities of B613301, B613302, and B613303, which are fusion proteins of anifrolumab and TACI-BCMA, to bind to BAFF and APRIL were assessed by ELISA as follows:
# as §2
Binder,Emax [1] [nM],EC50 relative to that of telitacicept [2] [ratio],Emax [3] [nM],Emax [6] [nM],other results
"B575704 (Fc fusion, TACI-BCMA fusion protein; also called BCMA-ECD-TACI-T2-Fc) MLQMAGQCSQNEYFDSLLHACIPCQLRCSSNTPPLTCQRYCNASVTNSVKGTNASRVDQEERFPQGLWTGVAMRSCPEEQYWDPLLGTCMSCKTICNHQSQRTCAAFCRSLSCRKEQGKFYDHLLRDCISCASICGQHPKQCAYFCENKLRSPVNLPPELDKTHTCPPCPAPEAEGAPSVFLFPPKPKDTLMISRTPEVTCVVVDVSHEDPEVKFNWYVDGVEVHNAKTKPREEQYNSTYRVVSVLTVLHQDWLNGKEYKCKVSNKALPSSIEKTISKAKGQPREPQVYTLPPSRDELTKNQVSLTCLVKGFYPSDIAVEWESNGQPENNYKTTPPVLDSDGSFFLYSKLTVDKSRWQQGNVFSCSVMHEALHNHYTQKSLSLSPGK",2.29,0.25,2.68,,
"B575702 (Fc fusion, TACI-BCMA fusion protein; also called BCMA-ECD-TACI-d2-Fc) MLQMAGQCSQNEYFDSLLHACIPCQLRCSSNTPPLTCQRYCNASVTNSVKGTNALSCRKEQGKFYDHLLRDCISCASICGQHPKQCAYFCENKLRSPGDKTHTCPPCPAPEAEGAPSVFLFPPKPKDTLMISRTPEVTCVVVDVSHEDPEVKFNWYVDGVEVHNAKTKPREEQYNSTYRVVSVLTVLHQDWLNGKEYKCKVSNKALPSSIEKTISKAKGQPREPQVYTLPPSRDELTKNQVSLTCLVKGFYPSDIAVEWESNGQPENNYKTTPPVLDSDGSFFLYSKLTVDKSRWQQGNVFSCSVMHEALHNHYTQKSLSLSPGK",2.24,0.25,2.64,,
"B575701 (Fc fusion, TACI-BCMA fusion protein; also called TACI-d2-BCMA-ECD-Fc) LSCRKEQGKFYDHLLRDCISCASICGQHPKQCAYFCENKLRSPGMLQMAGQCSQNEYFDSLLHACIPCQLRCSSNTPPLTCQRYCNASVTNSVKGTNADKTHTCPPCPAPEAEGAPSVFLFPPKPKDTLMISRTPEVTCVVVDVSHEDPEVKFNWYVDGVEVHNAKTKPREEQYNSTYRVVSVLTVLHQDWLNGKEYKCKVSNKALPSSIEKTISKAKGQPREPQVYTLPPSRDELTKNQVSLTCLVKGFYPSDIAVEWESNGQPENNYKTTPPVLDSDGSFFLYSKLTVDKSRWQQGNVFSCSVMHEALHNHYTQKSLSLSPGK",2.31,0.5,2.69,,
"B575703 (Fc fusion, TACI-BCMA fusion protein; also called TACI-T2-BCMA-ECD-Fc) SRVDQEERFPQGLWTGVAMRSCPEEQYWDPLLGTCMSCKTICNHQSQRTCAAFCRSLSCRKEQGKFYDHLLRDCISCASICGQHPKQCAYFCENKLRSPVNLPPELMLQMAGQCSQNEYFDSLLHACIPCQLRCSSNTPPLTCQRYCNASVTNSVKGTNADKTHTCPPCPAPEAEGAPSVFLFPPKPKDTLMISRTPEVTCVVVDVSHEDPEVKFNWYVDGVEVHNAKTKPREEQYNSTYRVVSVLTVLHQDWLNGKEYKCKVSNKALPSSIEKTISKAKGQPREPQVYTLPPSRDELTKNQVSLTCLVKGFYPSDIAVEWESNGQPENNYKTTPPVLDSDGSFFLYSKLTVDKSRWQQGNVFSCSVMHEALHNHYTQKSLSLSPGK",2.43,0.5,2.78,,

# More lines, main results first:
Emax [1] [nM],EC50 relative to that of telitacicept [2] [ratio],Emax [3] [nM],Emax [6] [nM],Binder,other results
,,,2.8,"B746201 (other, Fusion protein of anifrolumab, TACI-19-16 and BCMA-ECD-2) heavy: EVQLVQSGAEVKKPGESLKISCKGSGYIFTNYWIAWVRQMPGKGLESMGIIYPGDSDIRYSPSFQGQVTISADKSITTAYLQWSSLKASDTAMYYCARHDIEGFDYWGRGTLVTVSSASTKGPSVFPLAPSSKSTSGGTAALGCLVKDYFPEPVTVSWNSGALTSGVHTFPAVLQSSGLYSLSSVVTVPSSSLGTQTYICNVNHKPSNTKVDKRVEPKSCDKTHTCPPCPAPEFEGGPSVFLFPPKPKDTLMISRTPEVTCVVVDVSHEDPEVKFNWYVDGVEVHNAKTKPREEQYNSTYRVVSVLTVLHQDWLNGKEYKCKVSNKALPASIEKTISKAKGQPREPQVYTLPPSRDELTKNQVSLTCLVKGFYPSDIAVEWESNGQPENNYKTTPPVLDSDGSFFLYSKLTVDKSRWQQGNVFSCSVMHEALHNHYTQKSLSLSPGKGGGGSGGGGSGGGGSMLQMAGQCSQNEYFDSLLHACIPCQLRCSSNTPPLTCQRYCSTSCREEQGEFYDHLLRDCISCASICGQHPKQCAAFCE light: EIVLTQSPGTLSLSPGERATLSCRASQSVSSSFFAWYQQKPGQAPRLLIYGASSRATGIPDRLSGSGSGTDFTLTITRLEPEDFAVYYCQQYDSSAITFGQGTRLEIKRTVAAPSVFIFPPSDEQLKSGTASVVCLLNNFYPREAKVQWKVDNALQSGNSQESVTEQDSKDSTYSLSSTLTLSKADYEKHKVYACEVTHQGLSSPVTKSFNRGEC","IC50 (nM), inhibition of the activity of type I interferons (IFN-β, HEK-Blue IFN-α/β cells) [4]: 1.64 nM; IC50, inhibition of IFN-α-induced in vitro differentiation of B cells into plasma cells [5]: 1.9 nM; EC50 relative to that of telitacicept [7]: 0.333 ratio"
2.28,,2.62,2.98,"Telitacicept (RCT-18) (Fc fusion, Positive control, TACI-Fc) SRVDQEERFPQGLWTGVAMRSCPEEQYWDPLLGTCMSCKTICNHQSQRTCAAFCRSLSCRKEQGKFYDHLLRDCISCASICGQHPKQCAYFCENKLRSPVNLPPELDKTHTCPPCPAPEAEGAPSVFLFPPKPKDTLMISRTPEVTCVVVDVSHEDPEVKFNWYVDGVEVHNAKTKPREEQYNSTYRVVSVLTVLHQDWLNGKEYKCKVSNKALPSSIEKTISKAKGQPREPQVYTLPPSRDELTKNQVSLTCLVKGFYPSDIAVEWESNGQPENNYKTTPPVLDSDGSFFLYSKLTVDKSRWQQGNVFSCSVMHEALHNHYTQKSLSLSPGK","Flow cytometry proliferating B cell proportion (%), mean, APRIL-induced, drug at 4.12 nM [8]: 48.1%; Flow cytometry proliferating B cell proportion (%), mean, APRIL-induced, drug at 12.35 nM [8]: 49.2%; Flow cytometry proliferating B cell proportion (%), mean, APRIL-induced, drug at 37.04 nM [8]: 50.1%; Flow cytometry proliferating B cell proportion (%), mean, APRIL-induced, drug at 111.11 nM [8]: 50.3%; Flow cytometry proliferating B cell proportion (%), mean, APRIL-induced, drug at 333.33 nM [8]: 49.1%; Flow cytometry proliferating B cell proportion (%), mean, APRIL-induced, drug at 1000.00 nM [8]: 46.3%; Flow cytometry proliferating B cell proportion (%), mean, BAFF-induced, drug at 10 nM [9]: 36%; Flow cytometry proliferating B cell proportion (%), mean, BAFF-induced, drug at 100 nM [9]: 30.7%; Flow cytometry proliferating B cell proportion (%), mean, BAFF-induced, drug at 1000 nM [9]: 24.3%; Emax [10]: 2.5 nM"
